Several values for one entry are separate records, joined by “and”; a condition that tells them apart may be missing. Identical values can stand only once.
Target: human CD40 on primary human B cells or human monocyte-derived dendritic cells (human) (UniProt P25942)
Assay: cell-based or functional assay

human CD40 on primary human B cells or human monocyte-derived dendritic cells (human), sequence (P25942 21-277 H80K/K81H limits assumed): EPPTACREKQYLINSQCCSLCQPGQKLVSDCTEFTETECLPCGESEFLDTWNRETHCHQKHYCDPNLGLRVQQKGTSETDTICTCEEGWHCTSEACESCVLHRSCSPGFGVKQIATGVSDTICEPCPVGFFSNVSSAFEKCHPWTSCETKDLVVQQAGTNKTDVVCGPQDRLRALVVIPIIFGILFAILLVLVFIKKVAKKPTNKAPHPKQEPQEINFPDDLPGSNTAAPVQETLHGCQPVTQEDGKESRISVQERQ

EC50, % CD86, human B cells with FAP-CHO cells, w HSA: 0.88 nM and 0.3 nM | EC50, % CD86, human B cells with FAP-CHO cells, w/o HSA: 1.9 nM and 0.51 nM | EC50, MFI CD86, human B cells with FAP-CHO cells, w HSA: 0.51 nM and 2.05 nM | EC50, MFI CD86, human B cells with FAP-CHO cells, w/o HSA: 1.13 nM and 4.73 nM | Efficacy [MFI at highest dose], MFI CD86, human B cells with FAP-CHO cells, w HSA: 1530 MFI and 1870 MFI | Efficacy [MFI at highest dose], MFI CD86, human B cells with FAP-CHO cells, w/o HSA: 1340 MFI and 2060 MFI | Efficacy [MFI at highest dose], MFI CD86, human B cells with WT-CHO cells (no FAP), w HSA: 1900 MFI and 1470 MFI | Efficacy [MFI at highest dose], MFI CD86, human B cells with WT-CHO cells (no FAP), w/o HSA: 2050 MFI and 1390 MFI
Substance: anti-CD40 monoclonal antibody (corresponds to sequence 21.4.1 of U.S. Pat. No. 7,338,660 B2)
